{"source": "patent US12194082B2", "about": "“Compositions and methods for treatment of homocystinuria” (THE REGENTS OF THE UNIVERSITY OF COLORADO, priority 2016, dated 2025)", "key": {"KO mice": {"test_system": "KO mice", "assay": "DEXA bone mineralization and body composition in KO mice", "type": "in vivo, mouse", "conditions": "7.5 mg/kg SC 3x/week from day 2 to about 5 months", "procedure": "A PIXImusII DEXA scanner (GE Lunar Medical Systems) specifically designed for scanning small animals such as mice was used for DEXA analysis. This machine enabled quick and efficient determination of the body composition (lean, fat mass, and bone density) of a mouse before terminal tissue extraction procedures. Mice were fasted for 4 hours prior to the DEXA measurement to remove food from the gastro-intestinal tract. Mice were then anesthetized using IP bolus injection of 60 mg/kg ketamine and 15 mg/kg xylazine and placed on a tray in the DEXA machine. After the measurement was done (3˜5 minutes), the mice were removed from the DEXA machine and used in terminal procedures, such as tissue extractions.\nThe bone mineral density (BMD) and bone mineral content (BMC) were analyzed by DEXA for three groups of mice: +/− healthy heterozygous controls (n=4M+6F), affected KO controls (n=5M+13F), and 20NHS PEG-htCBS C15S (C15S/ME-200GS)-treated KO mice (n=6M+15F). The 20NHS PEG-htCBS C15S-treated mice were administered 7.5 mg/kg subcutaneously (SC) three times a week from day 2 to about 5 months. All −/− KO mice were treated for the initial 5 W (from 2 to 35 days of age) to prevent neonatal lethality."}, "Hcy, Cth, Cys, and Met": {"test_system": "Hcy, Cth, Cys, and Met", "assay": "Plasma metabolites in I278T mice of the DEXA study", "type": "in vivo", "conditions": "continuous long-term administration", "procedure": "Plasma metabolites were determined in the same mice/groups as described above and compared to each other. The left bar represents the level of metabolite for +/− healthy controls, and the middle bar represents the level of metabolite for −/− affected controls. The levels of each metabolite in 20NHS PEG-htCBS C15S-treated mice is represented by the right bar."}, "I278T mice": {"test_system": "I278T mice", "assay": "Eye defects (ciliary zonule) in I278T mice", "type": "in vivo, mouse", "conditions": "7.5 mg/kg SC 3x/week from 2 days to 4 months of age", "procedure": "Mice were subjected to perfusion fixation with 4% paraformaldehyde in 1×PBS pH 7.4 (4% PFA) to preserve the walls of the eye globe. Eyes were carefully surgically removed, submerged into 4% PFA and a small hole was carefully made in the posterior globe of the eye right below the optic nerve to allow the fixative to permeate to the interior of the eye and fixate the structures overnight at 4° C. The samples were washed 3 times using filtered 1×PBS pH 7.4. After washing, the posterior globe of the eye was carefully dissected down to the level of the ciliary epithelium to expose the ciliary zonule. The sample was placed in 8% BSA blocking solution for 2 hours with shaking. After blocking, MAGP1 antibodies (Sigma) diluted 1:50 in 4% BSA were added to the sample and stored at 4° C. overnight. The next day, the sample was washed 6 times using 1×PBS pH 7.4, and Alexa 488 secondary antibodies (1:200, Invitrogen) were added to the sample and incubated for 2 hours at room temperature with shaking. […]\nThe changes in metabolite levels in plasma were measured in I278T (+/−) healthy heterozygous control mice, untreated −/− affected homozygous control mice, and 20NHS PEG-htCBS C15S-treated −/− homozygous I278T mice. […] Levels measured beginning at 72 hours after the injection as mice were on the treatment from 2 days of age."}, "Hcy, Cth, Cys": {"test_system": "Hcy, Cth, Cys", "assay": "Plasma metabolites in I278T mice of the eye study", "type": "in vivo", "conditions": "7.5 mg/kg SC 3x/week", "procedure": "The changes in metabolite levels in plasma were measured in I278T (+/−) healthy heterozygous control mice, untreated −/− affected homozygous control mice, and 20NHS PEG-htCBS C15S-treated −/− homozygous I278T mice. The 20NHS PEG-htCBS C15S (C15S/ME-200GS)-treated mice were administered 7.5 mg/kg subcutaneously (SC) 3 times per week from the age of 2 days up to the age of 4 months. Levels measured beginning at 72 hours after the injection as mice were on the treatment from 2 days of age."}, "[1]": {"conditions": "cynomolgus monkey, in vivo", "quoted_text": "(§1) The pharmacokinetic (PK) parameters were calculated using a non-compartmental curve stripping model which resolves a curve into a series of exponential terms corresponding to the absorption, distribution and elimination phases occurring during the time course of the enzyme in the blood. The curve stripping approach assumes that the disposition phases of the drug follow apparent first-order kinetics, which is evidenced by the linearity in the terminal portion of a semi-log plot. These calculations were made using a modeling program called PK Solutions 2.0 (Summit Solutions, Montrose, CO) using the mean plasma enzyme activity for each route of administration. The bioavailability was calculated by dividing the area under the curve (AUC) for the SC or IP route by the AUC observed after IV administration.\nFor the single dose PK study, three experimental groups of 4 (n=2M+2F) monkeys each were used to conduct the experiments. The first group received 2 mg/kg 20NHS PEG-htCBS C15S via IV injection. Blood was collected at 0, 0.083, 0.16, 0.25, 0.5, 1, 2, 4, 8, 24, 72, 120, and 192 hours post IV injection. The second and third groups received either 2 mg/kg or 6 mg/kg 20NHS PEG-htCBS C15S via SC injection. Blood was collected at 0, 1, 2, 4, 8, 24, 48, 72, 96, 120, 192, 240, and 336 hours post SC injection."}, "[2]": {"assay": "Pharmacokinetics of 20NHS PEG-htCBS C15S in rats", "conditions": "for AUC/dose corrected to 80% bioavailability / Cmax/dose corrected to 80% bioavailability / tmax: SC", "quoted_text": "CBS activity was determined by a radioisotope assay with C^14-labeled serine as a substrate. Ten μl (total 490 ng) of pure htCBS in dilution buffer (0.1 M Tris-HCl pH=8.6, 1 mM DTT, 10 μM PLP, 0.5 mg/ml BSA) or 10 μl of plasma were added to 85 μl of reaction mixture containing 0.1 M Tris-HCl pH=8.6, 10 mM L-serine, 0.5 mM PLP, 0.5 mg/ml BSA and 0.3 μCi (for pure enzyme) or 0.45 μCi (for plasma) of L-[C^14(U)]-Serine. Samples were incubated for 5 min at 37° C. and reaction was initiated by addition of 5 μl of 0.2 M Hcy (10 mM final concentration). Following 30 min of incubation at 37° C., a 20 μl aliquot of the assay mixture was applied onto a grade 3 CHR Whatman (NJ, USA) paper. Assay initiation and sampling of the resulting mixture were staggered so that each reaction time was 30 minutes. Descending paper chromatography was used to isolate the radioactive product (Cth) from a labeled substrate (Ser). The C^14-cystathionine formed in the reaction was separated from C^14-serine by an overnight descending paper chromatography in 2-propanol/formic acid/H2O (75:5.7:18.9 v/v). Radioactivity in the area of the marker cystathionine (detected by staining the marker lane with ninhydrin) was determined by cutting the chromatogram into strips that were submerged in 5 ml of Opti-fluor scintillation cocktail (PerkinElmer, MA, USA) and counted in a Beckman LS-3801 scintillation counter. An enzyme-free sample was used as a blank to monitor the background radioactivity that was then subtracted from each sample. For pure enzyme, specific activity values are expressed as enzyme units (the amount of enzyme that produces 1 μmol of cystathionine/hour) per mg of CBS, and for plasma samples as units per μl plasma.\nas §1\nIn order to assess the pharmacokinetics of 20NHS PEG-htCBS C15S in rats, wild-type Sprague Dawley rats were injected with a single dose of 20NHS PEG-htCBS C15S through intra-vascular (IV) or sub-cutaneous (SC) routes. The design of a third (repeated dose) PK study (groups 7-9) was adjusted to allow extraction of data after the first dose and thus their combination with a single dose PK study (groups 1-6).\nTo further evaluate rats as a species for conducting long-term toxicity studies, the pharmacokinetics of 20NHS PEG-htCBS C15S was determined in three groups of Sprague Dawley rats receiving a total of 9 SC injections every 48 hours of either 4 mg/kg (low), 8 mg/kg (mid), or 24 mg/kg (high) 20NHS PEG-htCBS C15S. […] The experiment was conducted for a length of 24 days."}}, "note": "Several values for one entry are separate records, joined by “and”; a condition that tells them apart may be missing. Equal values may be shown once. Read-outs that look alike come from different tables or passages of the source."}
{"substance": "20NHS PEG-htCBS C15S: htCBS C15S PEGylated with ME-200GS PEG (20 kDa linear NHS ester-activated PEG)", "values": [{"measurement": "BMD vs control groups", "setting": "KO mice", "value": "significantly higher BMD than both control groups"}, {"measurement": "osteoporosis and body composition (DEXA)", "setting": "KO mice", "value": "completely prevented profound osteoporosis and improved body composition"}, {"measurement": "Hcy, Cth, Cys and Met plasma levels vs untreated −/− mice", "setting": "Hcy, Cth, Cys, and Met", "value": "significantly improved"}, {"measurement": "eye defects (zonular fibers)", "setting": "I278T mice", "value": "positive effect on the eye defects"}, {"measurement": "plasma Cth", "setting": "Hcy, Cth, Cys; throughout the study", "value": "around 50 μM"}, {"measurement": "plasma Cys", "setting": "Hcy, Cth, Cys; throughout the study", "value": "around 230 μM"}, {"measurement": "plasma Hcy", "setting": "Hcy, Cth, Cys; decreased from 230 μM", "value": "about 70 μM"}, {"measurement": "AUC0-t/dose", "setting": "[1]; iv, 2 mg/kg", "value": "2971 ± 78 mU-h/μl/(mg/kg)"}, {"measurement": "AUC/dose", "setting": "[1]; sc", "value": "2744 (mU-h/mL)/(mg/kg)"}, {"measurement": "cmax/dose", "setting": "[1]; sc", "value": "20 (mU/μL)/(mg/kg)"}, {"measurement": "elimination half-life (T1/2)", "setting": "[1]; sc", "value": 73, "unit": "h"}, {"measurement": "AUC0-t/dose", "setting": "[1]; sc, 2 mg/kg", "value": "2761 ± 160 mU-h/μl/(mg/kg)"}, {"measurement": "cmax/dose", "setting": "[1]; sc, 2 mg/kg", "value": "20.4 ± 1.0 mU/μl/(mg/kg)"}, {"measurement": "t1/2-A", "setting": "[1]; sc, 2 mg/kg", "value": "7.9 ± 1.0", "unit": "h"}, {"measurement": "t1/2-E", "setting": "[1]; sc, 2 mg/kg", "value": "72.9 ± 1.1", "unit": "h"}, {"measurement": "AUC0-t/dose", "setting": "[1]; sc, 6 mg/kg", "value": "2727 ± 119 mU-h/μl/(mg/kg)"}, {"measurement": "cmax/dose", "setting": "[1]; sc, 6 mg/kg", "value": "19.2 ± 1.3 mU/μl/(mg/kg)"}, {"measurement": "t1/2-A", "setting": "[1]; sc, 6 mg/kg", "value": "9.7 ± 1.0", "unit": "h"}, {"measurement": "t1/2-E", "setting": "[1]; sc, 6 mg/kg", "value": "72.8 ± 1.7", "unit": "h"}, {"measurement": "plasma CBS activity on repeated dosing", "setting": "[2]; 9 SC injections every 48 hours, 4, 8 or 24 mg/kg", "value": "substantial decline in peak CBS activities"}, {"measurement": "AUC/dose corrected to 80% bioavailability", "setting": "[2]; Rat/Female", "value": "1233 (mU-h/mL)/(mg/kg)"}, {"measurement": "Cmax/dose corrected to 80% bioavailability", "setting": "[2]; Rat/Female", "value": "16 (mU/μL)/(mg/kg)"}, {"measurement": "tmax", "setting": "[2]; Rat/Female", "value": 29, "unit": "h"}, {"measurement": "AUC/dose corrected to 80% bioavailability", "setting": "[2]; Rat/Male", "value": "1452 (mU-h/mL)/(mg/kg)"}, {"measurement": "Cmax/dose corrected to 80% bioavailability", "setting": "[2]; Rat/Male", "value": "17 (mU/μL)/(mg/kg)"}, {"measurement": "tmax", "setting": "[2]; Rat/Male", "value": 35, "unit": "h"}, {"measurement": "AUC0−t (obs area)", "setting": "[2]; females, 4 mg/kg IV", "value": 6165, "unit": "mU-h/μl"}, {"measurement": "Bioavailability", "setting": "[2]; females, 4 mg/kg IV", "value": 100, "unit": "%"}, {"measurement": "MRT (area)", "setting": "[2]; females, 4 mg/kg IV", "value": 45.5, "unit": "h"}, {"measurement": "cp0", "setting": "[2]; females, 4 mg/kg IV", "value": 186.2, "unit": "mU/μl"}, {"measurement": "AUC0−t (obs area)", "setting": "[2]; females, 8 mg/kg SC", "value": 4505, "unit": "mU-h/μl"}, {"measurement": "Bioavailability", "setting": "[2]; females, 8 mg/kg SC", "value": 36.5, "unit": "%"}, {"measurement": "MRT (area)", "setting": "[2]; females, 8 mg/kg SC", "value": 76.8, "unit": "h"}, {"measurement": "cmax", "setting": "[2]; females, 8 mg/kg SC", "value": 58.2, "unit": "mU/μl"}, {"measurement": "tmax (obs)", "setting": "[2]; females, 8 mg/kg SC", "value": 24, "unit": "h"}, {"measurement": "AUC0−t (obs area)", "setting": "[2]; females, 24 mg/kg SC", "value": 13135, "unit": "mU-h/μl"}, {"measurement": "Bioavailability", "setting": "[2]; females, 24 mg/kg SC", "value": 35.5, "unit": "%"}, {"measurement": "MRT (area)", "setting": "[2]; females, 24 mg/kg SC", "value": 79.8, "unit": "h"}, {"measurement": "cmax", "setting": "[2]; females, 24 mg/kg SC", "value": 166.3, "unit": "mU/μl"}, {"measurement": "tmax (obs)", "setting": "[2]; females, 24 mg/kg SC", "value": 48, "unit": "h"}, {"measurement": "bioavailability (F %) after SC administration", "setting": "[2]; male rats, across doses", "value": "19-21% and 20%"}, {"measurement": "AUC0−t (obs area)", "setting": "[2]; males, 4 mg/kg IV", "value": 7231, "unit": "mU-h/μl"}, {"measurement": "Bioavailability", "setting": "[2]; males, 4 mg/kg IV", "value": 100, "unit": "%"}, {"measurement": "MRT (area)", "setting": "[2]; males, 4 mg/kg IV", "value": 52.9, "unit": "h"}, {"measurement": "cp0", "setting": "[2]; males, 4 mg/kg IV", "value": 182.1, "unit": "mU/μl"}, {"measurement": "AUC0−t (obs area)", "setting": "[2]; males, 8 mg/kg SC", "value": 2703, "unit": "mU-h/μl"}, {"measurement": "Bioavailability", "setting": "[2]; males, 8 mg/kg SC", "value": 18.7, "unit": "%"}, {"measurement": "MRT (area)", "setting": "[2]; males, 8 mg/kg SC", "value": 65.6, "unit": "h"}, {"measurement": "cmax", "setting": "[2]; males, 8 mg/kg SC", "value": 32.7, "unit": "mU/μl"}, {"measurement": "tmax (obs)", "setting": "[2]; males, 8 mg/kg SC", "value": 48, "unit": "h"}, {"measurement": "AUC0−t (obs area)", "setting": "[2]; males, 24 mg/kg SC", "value": 9269, "unit": "mU-h/μl"}, {"measurement": "Bioavailability", "setting": "[2]; males, 24 mg/kg SC", "value": 21.3, "unit": "%"}, {"measurement": "MRT (area)", "setting": "[2]; males, 24 mg/kg SC", "value": 66.1, "unit": "h"}, {"measurement": "cmax", "setting": "[2]; males, 24 mg/kg SC", "value": 110.0, "unit": "mU/μl"}, {"measurement": "tmax (obs)", "setting": "[2]; males, 24 mg/kg SC", "value": 38, "unit": "h"}]}
